Here are results for nine molecules from US20110177071A1 (PERSEID THERAPEUTICS, published 2011).

In test [1] the target is T1, full-length human CD86 on HEK293 cells (human, UniProt P42081 24-329).
T1 sequence: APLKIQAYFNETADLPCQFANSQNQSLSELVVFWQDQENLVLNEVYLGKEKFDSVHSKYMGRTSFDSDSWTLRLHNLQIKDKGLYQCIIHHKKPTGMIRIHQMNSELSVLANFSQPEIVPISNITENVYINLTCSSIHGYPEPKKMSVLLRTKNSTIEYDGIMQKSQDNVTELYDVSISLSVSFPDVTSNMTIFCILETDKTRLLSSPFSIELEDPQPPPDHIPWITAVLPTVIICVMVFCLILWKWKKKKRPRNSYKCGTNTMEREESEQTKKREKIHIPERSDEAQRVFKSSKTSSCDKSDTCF
Description: cell-based or functional assay.

Test [2] deals with T2, human CD86-murine Ig fusion protein (human).
T2 construct: Bought (Ancell #509-820); also called hCD86-mIg
T2 chain: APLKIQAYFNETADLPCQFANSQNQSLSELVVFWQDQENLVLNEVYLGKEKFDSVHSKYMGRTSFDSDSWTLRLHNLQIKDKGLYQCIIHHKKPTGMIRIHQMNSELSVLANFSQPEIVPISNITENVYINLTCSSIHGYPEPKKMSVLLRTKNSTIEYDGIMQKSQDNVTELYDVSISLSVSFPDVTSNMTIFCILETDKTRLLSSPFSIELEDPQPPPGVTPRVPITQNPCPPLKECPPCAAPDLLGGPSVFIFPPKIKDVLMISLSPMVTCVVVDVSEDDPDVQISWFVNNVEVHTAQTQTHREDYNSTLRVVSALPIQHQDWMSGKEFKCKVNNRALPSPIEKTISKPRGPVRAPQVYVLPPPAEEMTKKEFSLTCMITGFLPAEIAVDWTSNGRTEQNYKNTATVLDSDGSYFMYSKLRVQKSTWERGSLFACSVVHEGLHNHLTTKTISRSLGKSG
Description: SPR Biacore, hCD86-mIg captured. How it is done: (§1) All Biacore™ analyses were performed on a Biacore™ 2000 system (GE Healthcare) at room temperature (RT, 25° C.). HBS-EP buffer (10 mM HEPES (pH 7.4), 150 mM NaCl, 3 mM EDTA, 0.005% surfactant P20) was used as the flow buffer for all experiments.
(§2) Rabbit anti-mouse IgG antibody (GE Healthcare, #BR-1005-14) was immobilized on CM5 sensor chips (GE Healthcare, #BR-1000-14) according to the manufacturer's protocol. Antibody was diluted to 30 μg/ml in immobilization buffer (10 mM sodium acetate, pH 5.0 (BR-1003-51)). At a flow rate of 5 μl/minute, sensor chip CM5 was activated with a 35 μl injection of a mixture of 1-Ethyl-3-[3-dimethylaminopropyl]carbodiimide hydrochloride (EDC) and N-hydroxysuccinimide (NHS) (made by mixing equal volumes of 11.5 mg/ml EDC and 75 mg/ml NHS) (GE Healthcare, #BR-1000-50), followed by a 35 μl injection of undiluted antibody. Un-reacted sites were quenched with 35 μl of 1M ethanolamine-HCL, pH 8.5 (GE Healthcare, #BR-1000-50). […] CTLA-4 ligands human CD80-murine Ig (hCD80-mIg) (Ancell, #510-820) or human CD86-murine Ig (hCD86-mIg) (Ancell, #509-820) were bound to antibody-coated sensor chips by injection of 10 μl or 16 μl, respectively, ligand solution (2 μg/ml protein in HBS-EP buffer [10 mM HEPES pH 7.4, 150 mM NaCl, 3 mM EDTA, 0.005% (v/v) surfactant P-20, GE Healthcare, #BR-1001-88]) at a flow rate of 10 μl/min.

Test [3] concerns the target T3, human CD80-murine Ig fusion protein (human).
T3 construct: Bought (Ancell #510-820); also called hCD80-mIg; human CD80-murine IgG
T3 chain: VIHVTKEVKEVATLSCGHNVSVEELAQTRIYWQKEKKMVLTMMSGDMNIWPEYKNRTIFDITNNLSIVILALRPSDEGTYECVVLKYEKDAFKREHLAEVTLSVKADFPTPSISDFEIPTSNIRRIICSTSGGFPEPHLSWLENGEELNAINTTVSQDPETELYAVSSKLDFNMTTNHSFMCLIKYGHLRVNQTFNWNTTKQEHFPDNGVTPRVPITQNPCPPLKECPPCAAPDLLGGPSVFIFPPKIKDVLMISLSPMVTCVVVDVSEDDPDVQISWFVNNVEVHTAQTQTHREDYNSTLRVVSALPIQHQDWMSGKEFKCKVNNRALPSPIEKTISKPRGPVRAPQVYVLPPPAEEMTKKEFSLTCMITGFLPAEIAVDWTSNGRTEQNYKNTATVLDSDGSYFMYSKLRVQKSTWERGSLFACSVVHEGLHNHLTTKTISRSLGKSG
Description: SPR Biacore, hCD80-mIg captured. Here is the method:
as §1, §2

B1: D2-IgG2 (Fc fusion)
chain: MHVAQPAVVLASSRGIASFVCEYESPHKANEIRVTVLRQANSQVTEVCAMTYMKGDELTFLDDPFCTGTFSGNQVNLTIQGLRAADTGLYICKVELMYPPPYYLGMGNGTQIYVIDPEPCPDSDERKCCVECPPCPAPPVAGPSVFLFPPKPKDTLMISRTPEVTCVVVDVSHEDPEVQFNWYVDGVEVHNAKTKPREEQFNSTFRVVSVLTVVHQDWLNGKEYKCKVSNKGLPAPIEKTISKTKGQPREPQVYTLPPSREEMTKNQVSLTCLVKGFYPSDIAVEWESNGQPENNYKTTPPMLDSDGSFFLYSKLTVDKSRWQQGNVFSCSVMHEALHNHYTQKSLSLSPG
As for B1, the “Mean IC50 (nM), CD4+ T cell proliferation” value (“Mean IC50 (nM)” for short) in test [1] amounted to 0.03 nM. For the same molecule, in test [2], the Kd was 0.131 to 0.262 nM. Besides, in test [3], the “Binding Avidity (Relative to Orencia)” value was over 2 fold and the equilibrium dissociation constant (Kd) was under 0.439 nM.

B2: D3-3-IgG2 (Fc fusion)
chain: MHVAQPAVVLASSRGIASFVCEYESPGKANEVRVTVLRQAGSQVTEVCAMTYMKGDELTFLDDPSCTGTFSGNQVNLTIQGLRAADTGLYICKVELMYPPPYYLGFGNGTQIYVIDPEPCPDSDERKCCVECPPCPAPPVAGPSVFLFPPKPKDTLMISRTPEVTCVVVDVSHEDPEVQFNWYVDGVEVHNAKTKPREEQFNSTFRVVSVLTVVHQDWLNGKEYKCKVSNKGLPAPIEKTISKTKGQPREPQVYTLPPSREEMTKNQVSLTCLVKGFYPSDIAVEWESNGQPENNYKTTPPMLDSDGSFFLYSKLTVDKSRWQQGNVFSCSVMHEALHNHYTQKSLSLSPG
notes: also called D3-03-IgG2
Turning to B2, in test [1], the “Mean IC50 (nM)” value is 0.04 nM. The Kd in test [2] is 0.131 to 0.262 nM; in test [3], 0.439 to 1.75 nM.

B3: D3-50-IgG2 (Fc fusion)
chain: MHVAQPAVVLASSRGIASFVCEYASPGKANEVRVTVLRQADSQVTEVCAMTYMKGDELTFLDDPICTGTFSGNQVNLTIQGLRAMDTGLYICKVELMYPPPYYLGIGNGTQIYVIDPEPCPDSDERKCCVECPPCPAPPVAGPSVFLFPPKPKDTLMISRTPEVTCVVVDVSHEDPEVQFNWYVDGVEVHNAKTKPREEQFNSTFRVVSVLTVVHQDWLNGKEYKCKVSNKGLPAPIEKTISKTKGQPREPQVYTLPPSREEMTKNQVSLTCLVKGFYPSDIAVEWESNGQPENNYKTTPPMLDSDGSFFLYSKLTVDKSRWQQGNVFSCSVMHEALHNHYTQKSLSLSPG
With B3, the “Mean IC50 (nM)” value in test [1] amounted to 0.06 nM. The dissociation constant (Kd) fell in the range of 0.131 to 0.262 nM in test [2] and 0.439 to 1.75 nM in test [3].

B4: D3-52-IgG2 (Fc fusion)
chain: MHVAQPAVVLASSRGIASFVCEYASPGKANEIRVTVLRQADSQVTEVCAMTYMKGNELTFLDDPICTGTFSGNQVNLTIQGLRAMDTGLYICKVELMYPPPYYLGIGNGTQIYVIDPEPCPDSDERKCCVECPPCPAPPVAGPSVFLFPPKPKDTLMISRTPEVTCVVVDVSHEDPEVQFNWYVDGVEVHNAKTKPREEQFNSTFRVVSVLTVVHQDWLNGKEYKCKVSNKGLPAPIEKTISKTKGQPREPQVYTLPPSREEMTKNQVSLTCLVKGFYPSDIAVEWESNGQPENNYKTTPPMLDSDGSFFLYSKLTVDKSRWQQGNVFSCSVMHEALHNHYTQKSLSLSPG
As for B4, the “Mean IC50 (nM)” value in test [1] amounted to 0.07 nM. The values for the Kd in test [2] and in test [3] were 0.262 to 0.523 nM and 0.439 to 1.75 nM, respectively.

B5: D3-2-IgG2 (Fc fusion)
chain: MHVAQPAVVLASSRGIASFVCEYESPGKATEIRVTVLRQAGSQVTEVCAMTYMKGDELTFLDDPSCTGTFSGNQVNLTIQGLRAADTGLYICKVELMYPPPYYLGFGNGTQIYVIDPEPCPDSDERKCCVECPPCPAPPVAGPSVFLFPPKPKDTLMISRTPEVTCVVVDVSHEDPEVQFNWYVDGVEVHNAKTKPREEQFNSTFRVVSVLTVVHQDWLNGKEYKCKVSNKGLPAPIEKTISKTKGQPREPQVYTLPPSREEMTKNQVSLTCLVKGFYPSDIAVEWESNGQPENNYKTTPPMLDSDGSFFLYSKLTVDKSRWQQGNVFSCSVMHEALHNHYTQKSLSLSPG
notes: also called D3-02-IgG2; D3-02
With B5, in test [1], the “Mean IC50 (nM)” value is 0.03 nM. Also, the Kd fell in the range of 0.131 to 0.262 nM in test [2] and 0.439 to 1.75 nM in test [3].

B6: D3-15-IgG2 (Fc fusion)
chain: MHVAQPAVVLASSRGIASFVCEYESPGKANEIRVTVLRQADSQVTEVCAMTYMKGDELTFLDDPSCTGTFSGNQVNLTIQGLRAMDTGLYICKVELMYPPPYYLGFGNGTQIYVIDPEPCPDSDERKCCVECPPCPAPPVAGPSVFLFPPKPKDTLMISRTPEVTCVVVDVSHEDPEVQFNWYVDGVEVHNAKTKPREEQFNSTFRVVSVLTVVHQDWLNGKEYKCKVSNKGLPAPIEKTISKTKGQPREPQVYTLPPSREEMTKNQVSLTCLVKGFYPSDIAVEWESNGQPENNYKTTPPMLDSDGSFFLYSKLTVDKSRWQQGNVFSCSVMHEALHNHYTQKSLSLSPG
In the case of B6, the “Mean IC50 (nM)” value in test [1] is 0.02 nM. Besides, in test [2], the “Binding Avidity (Relative to Orencia)” value was over 40 fold and the Kd is under 0.131 nM. For the same molecule, the Kd in test [3] is 0.439 to 1.75 nM.

B7: D3-34-IgG2 (Fc fusion)
chain: MHVAQPAVVLASSRGIASFVCEYASPGKANEVRVTVLRQADSQVTEVCAMTYMKGNELTFLDDPSCTGTFSGNQVNLTIQGLRAMDTGLYICKVELMYPPPYYLGIGNGTQIYVIDPEPCPDSDERKCCVECPPCPAPPVAGPSVFLFPPKPKDTLMISRTPEVTCVVVDVSHEDPEVQFNWYVDGVEVHNAKTKPREEQFNSTFRVVSVLTVVHQDWLNGKEYKCKVSNKGLPAPIEKTISKTKGQPREPQVYTLPPSREEMTKNQVSLTCLVKGFYPSDIAVEWESNGQPENNYKTTPPMLDSDGSFFLYSKLTVDKSRWQQGNVFSCSVMHEALHNHYTQKSLSLSPG
For the molecule B7, the “Mean IC50 (nM)” value in test [1] is 0.05 nM. For the same molecule, the Kd in test [2] is 0.131 to 0.262 nM; in test [3] it was 0.439 to 1.75 nM.

B8: D3-39-IgG2 (Fc fusion)
chain: MHVAQPAVVLASSRGIASFVCEYESPGKANEVRVTVLRQADSQVTEVCAMTYMKGNELTFLDDPICTGTFSGNQVNLTIQGLRAMDTGLYICKVELMYPPPYYLGIGNGTQIYVIDPEPCPDSDERKCCVECPPCPAPPVAGPSVFLFPPKPKDTLMISRTPEVTCVVVDVSHEDPEVQFNWYVDGVEVHNAKTKPREEQFNSTFRVVSVLTVVHQDWLNGKEYKCKVSNKGLPAPIEKTISKTKGQPREPQVYTLPPSREEMTKNQVSLTCLVKGFYPSDIAVEWESNGQPENNYKTTPPMLDSDGSFFLYSKLTVDKSRWQQGNVFSCSVMHEALHNHYTQKSLSLSPG
In the case of B8, the “Mean IC50 (nM)” value in test [1] is 0.05 nM. Also, the Kd is 0.262 to 0.523 nM in test [2] and 0.439 to 1.75 nM in test [3].

B9: D3-6-IgG2 (Fc fusion)
chain: MHVAQPAVVLASSRGIASFVCEYESPGKANEIRVTVLRQAGSQVTEVCAMTYMMGDELTFLDDPSCTGTFSGNQVNLTIQGLRAADTGLYICKVELMYPPPYYLGFGNGTQIYVIDPEPCPDSDERKCCVECPPCPAPPVAGPSVFLFPPKPKDTLMISRTPEVTCVVVDVSHEDPEVQFNWYVDGVEVHNAKTKPREEQFNSTFRVVSVLTVVHQDWLNGKEYKCKVSNKGLPAPIEKTISKTKGQPREPQVYTLPPSREEMTKNQVSLTCLVKGFYPSDIAVEWESNGQPENNYKTTPPMLDSDGSFFLYSKLTVDKSRWQQGNVFSCSVMHEALHNHYTQKSLSLSPG
notes: also called D3-06-IgG2
Take B9: the “Mean IC50 (nM)” value in test [1] came to 0.05 nM. In addition, the Kd in test [2] is 0.131 to 0.262 nM; in test [3], 0.439 to 1.75 nM.
